Measurements taken from patent publication US20220146501A1.

Assays:
[1] = target: anti-C-reactive protein antibody (MAB-1); experiment: TR-FRET competition; labeled anti-CRP MAB-1 with labeled CRP as tracer; unlabeled CRP calibrator at 20.4 mg/L
[2] = target: anti-C-reactive protein antibody (MAB-1); experiment: TR-FRET competition, acceptor emission; unlabeled CRP calibrator at 20.4 mg/L
[3] = target: anti-C-reactive protein antibody (MAB-1); experiment: TR-FRET competition; labeled anti-CRP MAB-1 with labeled CRP as tracer; unlabeled CRP calibrator at 8.1 mg/L
[4] = target: anti-C-reactive protein antibody (MAB-1); experiment: TR-FRET competition; labeled anti-CRP MAB-1 with labeled CRP as tracer; unlabeled CRP calibrator at 60.5 mg/L
[5] = target: anti-C-reactive protein antibody (MAB-1); experiment: TR-FRET competition; labeled anti-CRP MAB-1 with labeled CRP as tracer; unlabeled CRP calibrator at 118.7 mg/L
[6] = target: anti-C-reactive protein antibody (MAB-1); experiment: TR-FRET competition, acceptor emission; unlabeled CRP calibrator at 2.9 mg/L
[7] = target: anti-C-reactive protein antibody (MAB-1); experiment: TR-FRET competition, acceptor emission; unlabeled CRP calibrator at 8.1 mg/L
[8] = target: anti-C-reactive protein antibody (MAB-1); experiment: TR-FRET competition; labeled anti-CRP MAB-1 with labeled CRP as tracer; unlabeled CRP calibrator at 2.9 mg/L
[9] = target: anti-C-reactive protein antibody (MAB-1); experiment: TR-FRET competition, acceptor emission; unlabeled CRP calibrator at 118.7 mg/L
[10] = target: anti-C-reactive protein antibody (MAB-1); experiment: TR-FRET competition, acceptor emission; unlabeled CRP calibrator at 60.5 mg/L

- FRETRatio [1]: 8220
- Acceptor1RFU [2]: 103000 RFU
- FRETRatio [3]: 13100
- FRETRatio [4]: 3980
- FRETRatio [5]: 2320
- Acceptor1RFU [6]: 210000 RFU
- Acceptor1RFU [7]: 162000 RFU
- FRETRatio [8]: 17100
- Acceptor1RFU [9]: 29900 RFU
- Acceptor1RFU [10]: 49700 RFU
B1: C-reactive protein (unlabeled analyte / calibrator) (protein)
chain: QTDMSRKAFVFPKESDTSYVSLKAPLTKPLKAFTVCLHFYTELSSTRGYSIFSYATKRQDNEILIFWSKDIGYSFTVGGSEILFEVPEVTVAPVHICTSWESASGIVEFWVDGKPRVRKSLKKGYTVGAEASIILGQEQDSFGGNFEGSQSLVGDIGNVNMWDFVLSPDEINTIYLGGPFSPNVLNWRALKYEVQGEVFTKPQLWP
